{"source": "paper PMC5552228", "about": "“Mapping the contact surfaces in the Lamin A:AIMP3 complex by hydrogen/deuterium exchange FT-ICR mass spectrometry” (PLoS ONE, 2017)", "binders": {"B1": {"name": "His-Strep-TrxA-LmnA (C-terminal part of Lamin A, 567-646) (domain or fragment, UniProt P02545 567-646, looked up)", "chain": "GSHCSSSGDPAEYNLRSRTVLCGTCGQPADKASASGSGAQVGGPISSGSSASSVTVTRSYRSVGGSGGGSFGDNLVTRSY", "notes": "C-terminal part of mature Lamin A, residues 567-646 by the methods (the results say aa567-647, 80 aa); ends in NLVTRSY (203-209 of the construct); also called LmnA C-terminus; LmnA (aa567-647); source: E. coli BL21 (DE3), pET28a, purified (as for AIMP3: Ni-HiTrap, desalting column); not shown: His, N-terminal, kept; Strep, N-terminal, kept; TrxA (thioredoxin), N-terminal, kept"}}, "target": "T1, His-Tev-AIMP3 (aminoacyl-tRNA synthetases-interacting multifunctional protein 3) (human, UniProt O43324 1-174)", "T1 construct": "also called AIMP3/p18; MSC p18; source: E. coli BL21 (DE3), pET28a, purified (Ni-HiTrap, desalting column); not shown: His6-Tev (6-his tag and Tobacco Etch Virus protease cutting site, aa1-22 of the construct), N-terminal, kept", "T1 sequence (looked up)": "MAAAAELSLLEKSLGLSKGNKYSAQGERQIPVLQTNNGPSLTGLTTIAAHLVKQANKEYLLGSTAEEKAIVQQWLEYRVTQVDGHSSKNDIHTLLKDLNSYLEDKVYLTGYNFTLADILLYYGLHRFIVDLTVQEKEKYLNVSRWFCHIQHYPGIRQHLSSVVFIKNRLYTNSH", "assay": "HDX-MS; AIMP3 and LmnA mixed in 1:1 ratio, 40 uM stock, 20 mM Hepes, 150 mM NaCl, pH 7.5, diluted into D2O; 0.5-240 min at 0.4 °C; protease type XIII digestion; LC-ESI 14.5 T FT-ICR MS; free against complexed protein", "conditions": "both partners purified", "data": [{"binder": "B1", "values": [{"measurement": "binding result", "result": "binds"}]}]}
